# US20260248897
# Tests used:
# [1] = test system: RBD of SARS-CoV-2 Delta strain B.1.617.2, on infectious virus
# [2] = test system: RBD of SARS-CoV-2 Omicron strain
# [3] = test system: RBD of SARS-CoV-2 Delta strain
# [4] = test system: RBD of SARS-CoV-2 Omicron strain B.1.1.529, BA1, on infectious virus
substance,measurement,setting,value
gene recombinant of human PDI (protein disulfide isomerase),antiviral activity (viral genome amount in supernatant of infected airway organoids),[1],PDI showed the high antiviral activity against both the Delta strain and the Omicron strain.
same,"disulfide bond cleavage activity (remaining rate of native RBD; maleimide-PEG 2k, SDS-PAGE)",[2],PDI showed an activity to cleave disulfide bonds in both the RBD of the Delta strain and the RBD of the Omicron strain. The disulfide bond cleavage activity was particularly high in the RBD of the Omicron strain.
same,"disulfide bond cleavage activity (remaining rate of native RBD; maleimide-PEG 2k, SDS-PAGE)",[3],PDI showed an activity to cleave disulfide bonds in both the RBD of the Delta strain and the RBD of the Omicron strain.
same,antiviral activity (viral genome amount in supernatant of infected airway organoids),[4],PDI showed the high antiviral activity against both the Delta strain and the Omicron strain.
